# Source: publication PMC9734910
# Molecular target: Bat37ACE2(18–740) (Pipistrellus pipistrellus (Bat37))
# Test: […]; 20 mM HEPES, 100 mM NaCl, pH 7.5
substance,measurement,value
Bat37ACE2(18–740) (domain or fragment),stoichiometry N,2
